Measurements reported in article PMC2719869, “A Mouse Model for the Metabolic Effects of the Human Fat Mass and Obesity Associated FTO Gene” (PLoS Genetics, 2009).

B1: wild-type murine FTO (fat mass and obesity associated protein), full length (enzyme, mouse, UniProt Q8BGW1 1-502, looked up)
chain: MKRVQTAEEREREAKKLRLLEELEDTWLPYLTPKDDEFYQQWQLKYPKLVFREAGSIPEELHKEVPEAFLTLHKHGCLFRDVVRIQGKDVLTPVSRILIGDPGCTYKYLNTRLFTVPWPVKGCTVKYTEAEIAAACQTFLKLNDYLQVETIQALEELAVREKANEDAVPLCMAEFPRAGVGPSCDDEVDLKSRAAYNVTLLNFMDPQKMPYLKEEPYFGMGKMAVSWHHDENLVDRSAVAVYSYSCEGSEDESEDESSFEGRDPDTWHVGFKISWDIETPGLTIPLHQGDCYFMLDDLNATHQHCVLAGSQPRFSSTHRVAECSTGTLDYILERCQLALQNVLNDSDDGDVSLKSFDPAVLKQGEEIHNEVEFEWLRQFWFQGNRYKLCTDWWCEPMTHLEGLWKKMESMTNAVLREVKREGLPVEQRSEILSAILVPLTVRQNLRKEWHARCQSRVVRTLPVQQKPDCRPYWEKDDPSMPLPFDLTDVVSELRGQLLEARS
notes: also called mFTO; wild-type mFTO; source: E. coli, soluble; prepared as previously reported for full length mFTO [8]
B2: C-terminal domain of wild-type murine FTO (residues D329-end) (domain or fragment, mouse, UniProt Q8BGW1 329-502, looked up)
chain: DYILERCQLALQNVLNDSDDGDVSLKSFDPAVLKQGEEIHNEVEFEWLRQFWFQGNRYKLCTDWWCEPMTHLEGLWKKMESMTNAVLREVKREGLPVEQRSEILSAILVPLTVRQNLRKEWHARCQSRVVRTLPVQQKPDCRPYWEKDDPSMPLPFDLTDVVSELRGQLLEARS
modifications: partial alpha-N-gluconylation of the N-terminal His-tag (+178 Da adduct, likely)
notes: FTO, mouse, C-terminal domain, residues 329-502; Further details of the construct are in Text S1; also called CmFTO; mFTO 329-502 truncation; source: E. coli, soluble; prepared as previously reported for full length mFTO [8]; not shown: His tag, N-terminal, kept

Molecular target: the molecule itself
Assay: native MS; non-denaturing nano-electrospray MS; 10 uM protein (Q-ToF) or 15 uM protein (Synapt HDMS) sprayed from 15 mM ammonium acetate pH 7.5, cone voltage 80 V; monomer to dimer

Protein | stoichiometry N
B1 | 2
B2 | 2
